# In CN113388035A (MABWELL SHANGHAI BIOTECHNOLOGY CO LTD; SHANGHAI PUMING …, dated 2021):
# T1: 人IL7 protein (human, UniProt P13232 26-177)
# T1 construct: also called 人IL7蛋白
# T1 sequence (looked up): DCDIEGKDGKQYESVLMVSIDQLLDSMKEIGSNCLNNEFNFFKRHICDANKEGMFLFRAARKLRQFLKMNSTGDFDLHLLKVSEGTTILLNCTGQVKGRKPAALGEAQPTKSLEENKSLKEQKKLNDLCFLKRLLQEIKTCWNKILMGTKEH
# What was measured:
# [1] = biological target: T2, 人TSLP (human thymic stromal lymphopoietin) protein (human, UniProt Q969D9 29-159); assay: BLI (Fortebio), antibody captured on AMC probe, 100nM TSLP, 1:1 fit
# T2 construct: also called hTSLP; 人TSLP蛋白
# [2] = biological target: T2, 人TSLP (human thymic stromal …); assay: BLI (Fortebio), method of Example 2, antibody on probe, TSLP in solution
# [3] = biological target: T2, 人TSLP (human thymic stromal …); assay: as above; remark: listed apart in the source
# 人IL7 protein = biological target: T1, 人IL7 protein; assay: ELISA, IL7 coated at 1ug/ml, HRP-goat anti-human IgG
Binder,Kd [1] [nM],koff [1] [s⁻¹],kon [1] [M⁻¹ s⁻¹],Kd [2] [nM],koff [2] [s⁻¹],kon [2] [M⁻¹ s⁻¹],Kd [3] [nM],Response [3],koff [3] [s⁻¹],kon [3] [M⁻¹ s⁻¹],binding result (人IL7 protein)
"IgG D01 (murine anti-human TSLP monoclonal antibody, clone D01) (antibody, V domains shown, Murine hybridoma IgG, kappa light chain amplified; also called 克隆D01) VH: QVQLQQSGAELVRPGTSVKVSCKASGYAFTNYFIDWVKQRPGQGLEWIGVINPGSGGTNFNEKFKGKATLTADKSSSTAYMQLSSLTSEDSAVYFCARESEVGEGFAYWGQGTLVTVSA VL: DIQMTQTSSSLSASLGDRVTISCRASQDISNYLNWYQQKPDGTVKLLIYYTSTLHSGVPSRFSGSGSGTDYSLTISNLEQEDIATYFCQQGNTLPYTFGGGTKLEIK",2.83,0.000225,79600,,,,,,,,
"hzD01Hm5Lm4 (humanized, affinity-matured anti-human TSLP antibody) (antibody, human IgG2, V domains shown, not shown: human kappa light chain constant region) VH: EVQLVQSGAEVKKPGASVKVSCKASGYTFTNYFIDWVRQAPGQGLEWIGVIDAFSGGSNFNEKFKGRVTMTRDTSTSTAYMELSSLRSEDTAVYFCARESEVGEGFAYWGQGTLVTVSS VL: DIQMTQSPSSLSASVGDRVTISCRASQDISNYLNWYQQKPGKAPKLLIYYTSTLHSGVPSRFSGSGSGTDYTLTISSLQPEDIATYFCQQGNTLPYTFGQGTKLEIK",,,,,,,0.0637,0.368,3.98e-05,625000,no binding

# Next, values leading:
Kd [1] [nM],koff [1] [s⁻¹],kon [1] [M⁻¹ s⁻¹],Kd [2] [nM],koff [2] [s⁻¹],kon [2] [M⁻¹ s⁻¹],Kd [3] [nM],Response [3],koff [3] [s⁻¹],kon [3] [M⁻¹ s⁻¹],binding result (人IL7 protein),Binder
,,,0.985,0.000356,361000,,,,,,"xiD01 (anti-human TSLP chimeric antibody) (antibody, human IgG2, V domains shown, also called 抗人TSLP嵌合抗体蛋白xiD01; not shown: human kappa light chain constant region) VH: QVQLQQSGAELVRPGTSVKVSCKASGYAFTNYFIDWVKQRPGQGLEWIGVINPGSGGTNFNEKFKGKATLTADKSSSTAYMQLSSLTSEDSAVYFCARESEVGEGFAYWGQGTLVTVSA VL: DIQMTQTSSSLSASLGDRVTISCRASQDISNYLNWYQQKPDGTVKLLIYYTSTLHSGVPSRFSGSGSGTDYSLTISNLEQEDIATYFCQQGNTLPYTFGGGTKLEIK"
,,,,,,0.0983,0.426,6.08e-05,619000,no binding,"hzD01Lm12 (humanized, affinity-matured anti-human TSLP antibody) (antibody, human IgG2, V domains shown, also called hzD01m12; not shown: human kappa light chain constant region) VH: EVQLVQSGAEVKKPGASVKVSCKASGYTFTNYFIDWVRQAPGQGLEWIGVINPGSGGTNFNEKFKGRVTMTRDTSTSTAYMELSSLRSEDTAVYFCARESEVGEGFAYWGQGTLVTVSS VL: DIQMTQSPSSLSASVGDRVTISCRASQDISNYLNWYQQKPGKAPKLLIYYTSTLHSGVPSRFSGSGSGTDYTLTISSLQPEDIATYFCQQFDTLPYPFGQGTKLEIK"
